Holding throughout (assay): apparent Kd, flow cytometry, CHO cells
Experiment [1] addresses T1, human transferrin receptor (hTfR) fused to EGFP, on CHO cells (human, UniProt P02786 1-760).
T1 construct: whole, on cells; also called human TfR; CHO-hTfR-EGFP; not shown: EGFP from pEGFP-C1 vector, fused to the N-terminal (intracellular) end of hTfR
The method, then:
(§1) The binding properties of VHHs with affinity for the TfR from different species (i.e., human (h), mouse (m) and rhesus monkey (rh)) were tested using flow cytometry, and apparent affinities (Kd app) were determined. All experiments were performed in 96 well plates using 2×10⁵ cells/well, at 4° C. with shaking. CHO cell lines expressing the hTfR, mTfR or rhTfR fused to EGFP were saturated with PBS/BSA 2% solution during 30 min to avoid nonspecific binding, followed by incubation with purified VHHs at increasing concentrations for 1 hr. After one wash in PBS/BSA 2%, cells were incubated for 1 hr with an anti-6His tag antibody (mouse), washed twice with PBS/BSA 2%, and incubated for 1 hr with an Alexa647-conjugated anti-mouse secondary antibody. After two last washes in PBS/BSA 2%, cells were fixed by incubation for 15 min with PBS/PFA 2%, washed once with PBS and finally resuspended in PBS. Fluorescence levels were assessed using an Attune NxT flow cytometer (Thermo Fisher Scientific). Experimental data were fitted with GraphPad Prism® software using a nonlinear fit to determine the apparent Kd constants. […] Table 5 hereafter summarizes apparent Kd obtained for the tested VHHs.

Experiment [2] deals with T2, mouse transferrin receptor (mTfR) fused to EGFP, on CHO cells (mouse, UniProt Q62351 1-763).
T2 construct: whole, on cells; also called mouse TfR; CHO-mTfR-EGFP; not shown: EGFP
T2 sequence (Q62351 whole entry, the tested form may be a part): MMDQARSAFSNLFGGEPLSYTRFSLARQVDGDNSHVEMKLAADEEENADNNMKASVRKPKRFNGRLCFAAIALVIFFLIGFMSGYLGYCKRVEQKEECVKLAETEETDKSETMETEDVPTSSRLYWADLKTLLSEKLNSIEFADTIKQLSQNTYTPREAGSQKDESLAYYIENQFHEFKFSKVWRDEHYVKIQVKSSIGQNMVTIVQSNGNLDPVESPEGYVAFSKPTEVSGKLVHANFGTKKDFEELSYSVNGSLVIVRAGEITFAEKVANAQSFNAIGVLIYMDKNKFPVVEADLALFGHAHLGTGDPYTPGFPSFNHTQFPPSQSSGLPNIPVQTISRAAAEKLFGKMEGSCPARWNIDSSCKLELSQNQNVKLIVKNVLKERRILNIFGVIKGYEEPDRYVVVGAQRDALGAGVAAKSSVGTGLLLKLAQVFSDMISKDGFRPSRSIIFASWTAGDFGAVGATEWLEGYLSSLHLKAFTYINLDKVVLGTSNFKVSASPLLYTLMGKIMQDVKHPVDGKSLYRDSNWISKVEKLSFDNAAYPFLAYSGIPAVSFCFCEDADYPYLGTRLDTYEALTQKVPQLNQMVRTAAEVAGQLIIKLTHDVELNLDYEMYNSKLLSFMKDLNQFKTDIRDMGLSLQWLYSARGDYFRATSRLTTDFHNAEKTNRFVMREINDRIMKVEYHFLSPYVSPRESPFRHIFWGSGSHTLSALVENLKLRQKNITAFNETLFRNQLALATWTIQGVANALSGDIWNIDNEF
On the procedure: as §1

Experiment [3] has as its target T3, rhesus monkey transferrin receptor (rhTfR) fused to EGFP, on CHO cells (rhesus monkey).
T3 construct: whole, on cells; also called rhesus monkey TfR
On the procedure: as §1

This is an account of results in patent US20230414780A1 (VECT HORUS, published 2023).

T1 sequence (P02786 whole entry, the tested form may be a part): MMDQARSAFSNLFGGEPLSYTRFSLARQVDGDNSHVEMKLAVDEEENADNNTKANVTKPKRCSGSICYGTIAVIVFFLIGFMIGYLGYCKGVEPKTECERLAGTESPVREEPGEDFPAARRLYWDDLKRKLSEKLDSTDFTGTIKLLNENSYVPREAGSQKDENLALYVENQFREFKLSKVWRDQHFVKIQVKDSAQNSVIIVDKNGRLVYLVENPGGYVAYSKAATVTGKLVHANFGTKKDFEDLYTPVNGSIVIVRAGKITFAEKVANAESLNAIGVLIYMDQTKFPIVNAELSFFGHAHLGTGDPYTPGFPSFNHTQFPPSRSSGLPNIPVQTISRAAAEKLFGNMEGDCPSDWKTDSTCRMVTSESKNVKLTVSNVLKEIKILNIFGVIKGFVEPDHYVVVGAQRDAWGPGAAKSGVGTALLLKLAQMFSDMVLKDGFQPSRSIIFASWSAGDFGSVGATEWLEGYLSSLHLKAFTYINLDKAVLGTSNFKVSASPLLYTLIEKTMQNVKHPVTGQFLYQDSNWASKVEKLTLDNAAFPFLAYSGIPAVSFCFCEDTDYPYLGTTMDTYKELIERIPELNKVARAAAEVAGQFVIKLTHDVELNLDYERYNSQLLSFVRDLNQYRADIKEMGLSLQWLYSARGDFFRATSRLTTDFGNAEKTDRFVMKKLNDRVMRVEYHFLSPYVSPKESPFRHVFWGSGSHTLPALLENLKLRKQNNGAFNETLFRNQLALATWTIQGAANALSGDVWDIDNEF

B1: VHH A24 (C5^h5) (VHH)
VHH: EVQLVESGGGVVQPGGSLRLSCAASGTDFSINFIRWVRQAPGKGLEWVAGFTATGNTNYADSVKGRFTISRDNAKNTLYLQMNSLRPEDTAVYYCYMLDKWGQGTQVTVSS
As to B1, the Kd in experiment [1] came to 193 nM.

B2: C5^h16 (VHH)
VHH: EVQLVESGGGLVQPGGSLRLSCAASGTDFSINFIRWYRQAPGKGLEFVAGFTATGNTNYADSVKGRFTISRDNSKNTLYLQMNSLRAEDTAVYYCYMLDKWGQGTLVTVSS
For B2, the results for the Kd in experiment [1], in experiment [2] and in experiment [3] were 8.1 nM, 582 nM and 760 nM, respectively.

B3: C5^V20 (VHH)
VHH: EVQLVESGGGVVQPGGSLKLSCVASGHDFSINFIRWYRQAPGKQREFVAGFTATGNTNYADSMKGRFTISRDNTKNAVYLQIDSLKPEDTAVYYCYMLDKWGQGTQVTVSS
With B3, the Kd was found to be 2.5 nM in experiment [1], 125 nM in experiment [2] and 6.1 nM in experiment [3].

B4: C5^V26 (VHH)
VHH: EVQLVESGGGVVQPGGSLKLSCVASGTDFSINFIRWYRQAPGKQREFVAGFTATGNTNYADSMKGRFTISRDNTKNAVYLQIDSLKPEDTAVYYCYVLDKWGQGTQVTVSS
In the case of B4, the Kd in experiment [1] is 7.9 nM; in experiment [2] it was 211 nM; in experiment [3], 335 nM.

B5: C5^V24 (VHH)
VHH: EVQLVESGGGVVQPGGSLKLSCVASGTDFSINFIRWYRQAPGKQREFVAGFTATGNTNYADSMKGRFTISRDNTKNAVYLQIDSLKPEDTAVYYCWMLDKWGQGTQVTVSS
For B5, the Kd in experiment [1] stood at 4.3 nM; in experiment [2], 218 nM; in experiment [3], 564 nM.

B6: C5^h17 (VHH)
VHH: EVQLVESGGGVVQPGGSLKLSCVASGTDFSINFIRWVRQAPGKGLEFVAGFTATGNTNYADSMKGRFTISRDNTKNALYLQIDSLRPEDTAVYYCYMLDKWGQGTQVTVSS
With B6, the Kd in experiment [1] was 630 nM; in experiment [2], 898 nM.

B7: C5^h15 (VHH)
VHH: EVQLVESGGGVVQPGGSLRLSCVASGTDFSINFIRWVRQAPGKGLEWVAGFTATGNTNYADSVKGRFTISRDNTKNTLYLQMDSLRPEDTAVYYCYMLDKWGQGTQVTVSS
For B7, the Kd in experiment [1] stood at 1090 nM; in experiment [2], 452 nM.

B8: C5^h10 (VHH)
VHH: EVQLVESGGGVVQPGGSLKLSCAASGTDFSINFIRWVRQAPGKGLEWVAGFTATGNTNYADSVKGRFTISRDNTKNTLYLQINSLRPEDTAVYYCYMLDKWGQGTQVTVSS
For B8, the Kd came out at 1070 nM in experiment [1] and 845 nM in experiment [2].

B9: C5^V28 (VHH)
VHH: EVQLVESGGGVVQPGGSLKLSCVASGADFSINFIRWYRQAPGKQREFVAGFSATGNTNYADSMKGRFTISRDNTKNAVYLQIDSLKPEDTAVYYCYMLDKWGQGTQVTVSS
In the case of B9, the Kd in experiment [1] came out at 3.3 nM; in experiment [2], 160 nM; in experiment [3], 371 nM.

B10: C5^h14 (VHH)
VHH: EVQLVESGGGVVQPGGSLRLSCAASGTDFSINFIRWVRQAPGKGLEWVAGFTATGNTNYADSVKGRFTISRDNTKNALYLQMNSLRPEDTAVYYCYMLDKWGQGTQVTVSS
As to B10, the Kd in experiment [1] turned out to be 1100 nM; in experiment [2], 164 nM.

B11: C5^h23 (VHH)
VHH: EVQLVESGGGVVQPGGSLRLSCAASGTDFSINFIRWVRQAPGKQREFVAGFTATGNTNYADSVKGRFTISRDNAKNTLYLQMNSLRPEDTAVYYCYMLDKWGQGTQVTVSS
For B11, the Kd in experiment [1] turned out to be 594 nM; in experiment [2], 1540 nM; in experiment [3], 2000 nM.

B12: VHH A10 (C5^V10) (VHH)
VHH: EVQLVESGGGVVQPGGSLKLSCVASGTDFSLNFIRWYRQAPGKQREFVAGFTATGNTNYADSMKGRFTISRDNTKNAVYLQIDSLKPEDTAVYYCYMLDKWGQGTQVTVSS
Take B12: the Kd in experiment [1] was 3.4 nM; in experiment [2] it was 159 nM; in experiment [3], 5.1 nM.

B13: C5^h21 (VHH)
VHH: EVQLVESGGGVVQPGGSLRLSCAASGTDFSINFIRWYRQAPGKGLEFVAGFTATGNTNYADSVKGRFTISRDNAKNTLYLQMNSLKPEDTAVYYCYMLDKWGQGTQVTVSS
As to B13, the Kd was 8.8 nM in experiment [1], 600 nM in experiment [2] and 1010 nM in experiment [3].

B14: C5^V23 (VHH)
VHH: EVQLVESGGGVVQPGGSLKLSCVASGTDFSINFIRWYRQAPGKQREFVAGFTATGNTNYADSMKGRFTISRDNTKNAVYLQIDSLKPEDTAVYYCHMLDKWGQGTQVTVSS
Consider B14, for which the Kd in experiment [1] came out at 4.5 nM; in experiment [2] it was 254 nM; in experiment [3], 353 nM.

B15: C5^h12 (VHH)
VHH: EVQLVESGGGVVQPGGSLRLSCAASGTDFSINFIRWYRQAPGKGLEFVAGFTATGNTNYADSVKGRFTISRDNAKNTLYLQIDSLRPEDTAVYYCYMLDKWGQGTQVTVSS
For the molecule B15, the Kd in experiment [1] is 4.3 nM; in experiment [2] it was 331 nM; in experiment [3] it was 361 nM.

B16: VHH A21 (C5^h2) (VHH)
VHH: EVQLVESGGGVVQPGGSLRLSCAASGTDFSINFIRWVRQAPGKQREFVAGFTATGNTNYADSVKGRFTISRDNAKNTLYLQMNSLRPEDTAVYYCYMLDKWGQGTQVTVSS
Turning to B16, the values for the Kd in experiment [1] and in experiment [2] were 267 nM and 225 nM, respectively.

B17: C5^h24 (VHH)
VHH: EVQLVESGGGVVQPGGSLRLSCAASGTDFSINFIRWYRQAPGKGLEFVAGFTATGNTNYADSMKGRFTISRDNAKNTLYLQMNSLRPEDTAVYYCYMLDKWGQGTQVTVSS
B17: the Kd in experiment [1] came to 4.1 nM; in experiment [2], 624 nM; in experiment [3], 641 nM.

B18: C5^V22 (VHH)
VHH: EVQLVESGGGVVQPGGSLKLSCVASGTDFSINFIRWYRQAPGKQREFVAGYTATGNTNYADSMKGRFTISRDNTKNAVYLQIDSLKPEDTAVYYCYMLDKWGQGTQVTVSS
On to B18, for which the Kd came out at 2.7 nM in experiment [1], 131 nM in experiment [2] and 11 nM in experiment [3].

B19: C5^V25 (VHH)
VHH: EVQLVESGGGVVQPGGSLKLSCVASGTDFSINFIRWYRQAPGKQREFVAGFTATGNTNYADSMKGRFTISRDNTKNAVYLQIDSLKPEDTAVYYCYLLDKWGQGTQVTVSS
In the case of B19, the Kd in experiment [1] is 4.5 nM; in experiment [2] it was 136 nM; in experiment [3] it was 429 nM.

B20: C5^h11 (VHH)
VHH: EVQLVESGGGVVQPGGSLRLSCAASGTDFSINFIRWVRQAPGKGLEWVAGFTATGNTNYADSMKGRFTISRDNTKNTLYLQMNSLRPEDTAVYYCYMLDKWGQGTQVTVSS
As to B20, the Kd in experiment [1] was 1130 nM; in experiment [2], 1370 nM; in experiment [3], 1240 nM.

B21: C5^h8 (VHH)
VHH: EVQLVESGGGVVQPGGSLRLSCAASGTDFSINFIRWVRQAPGKGLEWVAGFTATGNTNYADSVKGRFTISRDNTKNTLYLQIDSLRPEDTAVYYCYMLDKWGQGTQVTVSS
B21: the Kd in experiment [1] came to 987 nM; in experiment [2] it was 656 nM.

B22: VHH A14 (C5^V14) (VHH)
VHH: EVQLVESGGGVVQPGGSLKLSCVASGTDFSINFIRWYRQAPGKQREFVAGFTATGNSNYADSMKGRFTISRDNTKNAVYLQIDSLKPEDTAVYYCYMLDKWGQGTQVTVSS
As to B22, the Kd in experiment [1] worked out at 3.3 nM; in experiment [2], 158 nM; in experiment [3] it was 3.9 nM.

B23: C5^h26 (VHH)
VHH: EVQLVESGGGVVQPGGSLRLSCAASGTDFSINFIRWYRQAPGKGLEWVAGFTATGNTNYADSVKGRFTISRDNAKNTLYLQIDSLRPEDTAVYYCYMLDKWGQGTQVTVSS
B23: the Kd in experiment [1] was determined as 4 nM; in experiment [2] it was 675 nM; in experiment [3], 656 nM.

B24: C5^V21 (VHH)
VHH: EVQLVESGGGVVQPGGSLKLSCVASGTDFSINFIRWYRQAPGKQREFVAGWTATGNTNYADSMKGRFTISRDNTKNAVYLQIDSLKPEDTAVYYCYMLDKWGQGTQVTVSS
Regarding B24, the Kd in experiment [1] is 2.4 nM; in experiment [2] it was 120 nM; in experiment [3], 8.2 nM.

B25: C5^h13 (VHH)
VHH: EVQLVESGGGVVQPGGSLRLSCAASGTDFSINFIRWYRQAPGKGLEFVAGFTATGNTNYADSVKGRFTISRDNTKNTLYLQMNSLRPEDTAVYYCYMLDKWGQGTQVTVSS
With B25, the results for the Kd in experiment [1], in experiment [2] and in experiment [3] were 8.3 nM, 554 nM and 730 nM, respectively.
